Test results from the Human Domainome abundance scans (Beltran et al. 2025).
± gives the uncertainty stated by the source.

test: abundance fitness (aPCA) (normalised: wild type 0, dead -1); higher = more abundant; growth selection in yeast, the domain comes from the species named; details: Homo sapiens

Substance	abundance fitness
BAG family molecular chaperone regulator 3 R53W, O95817	-0.861 ± 0.14
BAG family molecular chaperone regulator 3 R53Y, O95817	-0.788 ± 0.14
BAG family molecular chaperone regulator 3 S14A, O95817	-0.285 ± 0.14
BAG family molecular chaperone regulator 3 S14C, O95817	-0.542 ± 0.42
BAG family molecular chaperone regulator 3 S14D, O95817	0.102 ± 0.14
BAG family molecular chaperone regulator 3 S14E, O95817	0.233 ± 0.085
BAG family molecular chaperone regulator 3 S14F, O95817	-0.528 ± 0.28
BAG family molecular chaperone regulator 3 S14G, O95817	-0.641 ± 0.1
BAG family molecular chaperone regulator 3 S14H, O95817	0.623 ± 0.12
BAG family molecular chaperone regulator 3 S14I, O95817	0.059 ± 0.23
BAG family molecular chaperone regulator 3 S14K, O95817	0.023 ± 0.28
BAG family molecular chaperone regulator 3 S14L, O95817	0.091 ± 0.11
BAG family molecular chaperone regulator 3 S14M, O95817	-0.022 ± 0.2
BAG family molecular chaperone regulator 3 S14N, O95817	-0.156 ± 0.17
BAG family molecular chaperone regulator 3 S14P, O95817	-0.269 ± 0.19
BAG family molecular chaperone regulator 3 S14Q, O95817	0.677 ± 0.15
BAG family molecular chaperone regulator 3 S14T, O95817	-0.084 ± 0.19
BAG family molecular chaperone regulator 3 S14V, O95817	-0.219 ± 0.14
BAG family molecular chaperone regulator 3 S14W, O95817	-0.576 ± 0.23
BAG family molecular chaperone regulator 3 S14Y, O95817	-0.113 ± 0.15
BAG family molecular chaperone regulator 3 S44C, O95817	-0.688 ± 0.31
BAG family molecular chaperone regulator 3 S44D, O95817	-0.557 ± 0.47
BAG family molecular chaperone regulator 3 S44E, O95817	-0.489 ± 0.17

Substance	abundance fitness
BAG family molecular chaperone regulator 3 S44F, O95817	-0.682 ± 0.29
BAG family molecular chaperone regulator 3 S44G, O95817	-0.483 ± 0.11
BAG family molecular chaperone regulator 3 S44H, O95817	-0.481 ± 0.37
BAG family molecular chaperone regulator 3 S44K, O95817	-0.7 ± 0.43
BAG family molecular chaperone regulator 3 S44L, O95817	-0.246 ± 0.17
BAG family molecular chaperone regulator 3 S44M, O95817	-0.371 ± 0.15
BAG family molecular chaperone regulator 3 S44N, O95817	-0.035 ± 0.25
BAG family molecular chaperone regulator 3 S44Q, O95817	-0.44 ± 0.29
BAG family molecular chaperone regulator 3 S44R, O95817	-0.335 ± 0.08
BAG family molecular chaperone regulator 3 S44T, O95817	0.209 ± 0.11
BAG family molecular chaperone regulator 3 S44W, O95817	-0.86 ± 0.17
BAG family molecular chaperone regulator 3 S44Y, O95817	-0.485 ± 0.39
BAG family molecular chaperone regulator 3 S56A, O95817	-0.146 ± 0.12
BAG family molecular chaperone regulator 3 S56C, O95817	-0.13 ± 0.18
BAG family molecular chaperone regulator 3 S56E, O95817	-0.24 ± 0.25
BAG family molecular chaperone regulator 3 S56F, O95817	-0.205 ± 0.13
BAG family molecular chaperone regulator 3 S56G, O95817	-0.011 ± 0.063
BAG family molecular chaperone regulator 3 S56H, O95817	-0.411 ± 0.37
BAG family molecular chaperone regulator 3 S56I, O95817	0.304 ± 0.1
BAG family molecular chaperone regulator 3 S56K, O95817	-0.136 ± 0.29
BAG family molecular chaperone regulator 3 S56L, O95817	-0.125 ± 0.14
BAG family molecular chaperone regulator 3 S56M, O95817	0.083 ± 0.12
BAG family molecular chaperone regulator 3 S56N, O95817	0.103 ± 0.19

Substance	abundance fitness
BAG family molecular chaperone regulator 3 S56P, O95817	-0.572 ± 0.27
BAG family molecular chaperone regulator 3 S56R, O95817	0.007 ± 0.063
BAG family molecular chaperone regulator 3 S56T, O95817	0.208 ± 0.16
BAG family molecular chaperone regulator 3 S56V, O95817	0.08 ± 0.1
BAG family molecular chaperone regulator 3 S56W, O95817	-0.473 ± 0.13
BAG family molecular chaperone regulator 3 S56Y, O95817	0.376 ± 0.3
BAG family molecular chaperone regulator 3 T34A, O95817	0.131 ± 0.12
BAG family molecular chaperone regulator 3 T34C, O95817	-0.073 ± 0.13
BAG family molecular chaperone regulator 3 T34E, O95817	-0.183 ± 0.19
BAG family molecular chaperone regulator 3 T34G, O95817	0.064 ± 0.087
BAG family molecular chaperone regulator 3 T34H, O95817	-0.495 ± 0.48
BAG family molecular chaperone regulator 3 T34I, O95817	0.028 ± 0.2
BAG family molecular chaperone regulator 3 T34K, O95817	0.244 ± 0.23
BAG family molecular chaperone regulator 3 T34L, O95817	-0.568 ± 0.084
BAG family molecular chaperone regulator 3 T34M, O95817	0.01 ± 0.23
BAG family molecular chaperone regulator 3 T34N, O95817	0.336 ± 0.26
BAG family molecular chaperone regulator 3 T34P, O95817	-0.688 ± 0.14
BAG family molecular chaperone regulator 3 T34Q, O95817	-0.148 ± 0.1
BAG family molecular chaperone regulator 3 T34R, O95817	-0.391 ± 0.12
BAG family molecular chaperone regulator 3 T34S, O95817	0.579 ± 0.089
BAG family molecular chaperone regulator 3 T34V, O95817	0.011 ± 0.17
BAG family molecular chaperone regulator 3 T34W, O95817	-0.179 ± 0.083
BAG family molecular chaperone regulator 3 T46A, O95817	-0.687 ± 0.32

Substance	abundance fitness
BAG family molecular chaperone regulator 3 T46C, O95817	-0.312 ± 0.086
BAG family molecular chaperone regulator 3 T46G, O95817	-0.65 ± 0.075
BAG family molecular chaperone regulator 3 T46H, O95817	-0.571 ± 0.4
BAG family molecular chaperone regulator 3 T46I, O95817	-0.285 ± 0.21
BAG family molecular chaperone regulator 3 T46K, O95817	-0.435 ± 0.33
BAG family molecular chaperone regulator 3 T46L, O95817	-0.53 ± 0.12
BAG family molecular chaperone regulator 3 T46P, O95817	-0.752 ± 0.32
BAG family molecular chaperone regulator 3 T46Q, O95817	-0.444 ± 0.14
BAG family molecular chaperone regulator 3 T46R, O95817	-0.225 ± 0.11
BAG family molecular chaperone regulator 3 T46S, O95817	-0.183 ± 0.12
BAG family molecular chaperone regulator 3 T46V, O95817	-0.531 ± 0.14
BAG family molecular chaperone regulator 3 T46Y, O95817	-0.358 ± 0.33
BAG family molecular chaperone regulator 3 T47A, O95817	-0.613 ± 0.17
BAG family molecular chaperone regulator 3 T47C, O95817	-0.227 ± 0.27
BAG family molecular chaperone regulator 3 T47D, O95817	-0.679 ± 0.42
BAG family molecular chaperone regulator 3 T47E, O95817	-0.573 ± 0.15
BAG family molecular chaperone regulator 3 T47G, O95817	-0.796 ± 0.14
BAG family molecular chaperone regulator 3 T47H, O95817	-0.736 ± 0.3
BAG family molecular chaperone regulator 3 T47I, O95817	-0.468 ± 0.23
BAG family molecular chaperone regulator 3 T47L, O95817	-0.613 ± 0.28
BAG family molecular chaperone regulator 3 T47M, O95817	-0.564 ± 0.24
BAG family molecular chaperone regulator 3 T47N, O95817	-0.53 ± 0.2
